Drawing on patent US20240409935A1, “Atg8ylation coordinates stress granule formation and mTOR inactivation in response to lysosomal damage” (priority 2023, published 2024), this text covers % binding (percent of the input bound) for 1 substance.

The target in the experiment is T1, GST-tagged NUFIP2 (Homo sapiens (Human)) (UniProt Q7Z417).
T1 sequence: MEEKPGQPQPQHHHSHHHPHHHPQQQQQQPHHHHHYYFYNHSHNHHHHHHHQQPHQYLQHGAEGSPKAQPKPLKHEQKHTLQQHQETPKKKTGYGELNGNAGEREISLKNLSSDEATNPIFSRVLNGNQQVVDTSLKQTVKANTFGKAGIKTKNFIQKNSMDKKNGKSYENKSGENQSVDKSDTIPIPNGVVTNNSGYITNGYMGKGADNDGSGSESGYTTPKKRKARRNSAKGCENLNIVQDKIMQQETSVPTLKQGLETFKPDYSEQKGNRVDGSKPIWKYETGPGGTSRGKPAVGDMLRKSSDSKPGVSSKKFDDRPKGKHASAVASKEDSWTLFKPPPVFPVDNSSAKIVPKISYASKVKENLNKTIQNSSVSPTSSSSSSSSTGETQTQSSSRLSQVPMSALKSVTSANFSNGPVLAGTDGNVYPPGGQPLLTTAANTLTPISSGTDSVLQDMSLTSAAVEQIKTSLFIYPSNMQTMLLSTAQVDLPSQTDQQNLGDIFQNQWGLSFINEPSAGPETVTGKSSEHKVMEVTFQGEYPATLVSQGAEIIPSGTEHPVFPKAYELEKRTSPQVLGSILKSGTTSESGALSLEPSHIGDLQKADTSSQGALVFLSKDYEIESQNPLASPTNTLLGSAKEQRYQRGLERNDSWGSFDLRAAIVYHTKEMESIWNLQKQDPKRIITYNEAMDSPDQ
The experiment in a line: GST pulldown of in vitro translated radiolabeled Myc-G3BP1 with GST-NUFIP2.

Sequence of Myc-tagged G3BP1 (in vitro translated and radiolabeled) (Q13283 whole entry): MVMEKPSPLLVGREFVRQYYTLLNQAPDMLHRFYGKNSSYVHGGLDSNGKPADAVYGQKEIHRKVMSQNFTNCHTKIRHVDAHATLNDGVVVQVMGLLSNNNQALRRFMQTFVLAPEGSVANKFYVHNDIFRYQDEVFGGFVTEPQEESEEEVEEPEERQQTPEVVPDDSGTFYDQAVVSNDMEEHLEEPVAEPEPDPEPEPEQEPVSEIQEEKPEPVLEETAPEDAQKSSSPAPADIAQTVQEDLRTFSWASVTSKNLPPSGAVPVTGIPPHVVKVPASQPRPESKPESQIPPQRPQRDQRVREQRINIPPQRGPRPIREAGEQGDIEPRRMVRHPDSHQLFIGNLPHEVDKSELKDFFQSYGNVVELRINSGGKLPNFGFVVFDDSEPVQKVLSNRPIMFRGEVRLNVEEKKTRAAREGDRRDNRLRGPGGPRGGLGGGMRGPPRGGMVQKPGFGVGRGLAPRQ

The substance “Myc-tagged G3BP1 (in vitro translated and radiolabeled) (from UniProt Q13283 1-466)” showed a % binding (percent of the input bound) of 60%.
